Reference: patent US20240092890A1 (JUNTENDO EDUCATIONAL FOUNDATION, published 2024)

T1: Ins 5 type mutant CALR protein on UT-7/TPO CALR Ins 5 cells (UniProt P27797 18-417)
T1 sequence (looked up): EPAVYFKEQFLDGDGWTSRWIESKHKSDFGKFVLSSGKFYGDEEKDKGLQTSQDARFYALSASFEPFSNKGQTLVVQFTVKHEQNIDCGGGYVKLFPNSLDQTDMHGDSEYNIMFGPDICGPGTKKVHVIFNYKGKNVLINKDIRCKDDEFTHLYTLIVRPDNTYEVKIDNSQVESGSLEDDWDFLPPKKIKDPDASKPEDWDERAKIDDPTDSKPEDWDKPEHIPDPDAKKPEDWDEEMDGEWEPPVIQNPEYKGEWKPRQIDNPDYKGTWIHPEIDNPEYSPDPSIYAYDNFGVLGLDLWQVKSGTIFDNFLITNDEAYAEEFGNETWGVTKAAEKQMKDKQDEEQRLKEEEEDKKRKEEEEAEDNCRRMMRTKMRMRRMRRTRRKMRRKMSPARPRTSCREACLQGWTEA

T2: protein having an Fc region and a His-tag added to the N-terminus of SEQ ID NO: 1
T2 construct: also called mutant CALR protein (antigen of the BLItz measurement); not shown: Fc region and His-tag at the N-terminus
T2 chain: RRMMRTKMRMRRM


Assays:
[1] = target: T1, Ins 5 type mutant CALR protein on …; experiment: cell-based or functional assay
[2] = target: T2, protein having an Fc region and a …; experiment: BLItz biolayer interferometry, Fc/His-SEQ ID NO: 1 protein on the biosensor
Procedure: As another method, measurements were performed using the molecular interaction analysis system BLItz (ForteBio), which applies biolayer interferometry […]. Specifically, a protein having an Fc region and a His-tag added to the N-terminus of SEQ ID NO: 1 was immobilized at a concentration of 0.1 mg/mL using the Anti-Penta-HIS or ProteinA biosensor (ForteBio). Subsequently, the antibodies 1 to 114 made were prepared at a concentration of 500, 100, and 50 nM and reacted to acquire the dissociation constant.

| Binder | Kd [2] [pM] | EC50 of cytotoxic activity (pM) [1] [pM] |
| --- | --- | --- |
| Antibody 62 (bispecific antibody) chain 1: not shown chain 2: DIQMTQSPSFVSASVGDRVTITCLASEDIYSYLAWYQQKPGKAPKLLIFAANRLQDGVPSRFSGGGSGTGFTLTISSLQPEDFATYFCLQGSKFPYTFGQGTKLEINRTVAAPSVFIFPPSDEQLKSGTASVVCLLNNFYPREAKVQWKVDNALQSGNSQESVTEQDSKDSTYSLSSTLTLSKADYEKHKVYACEVTHQGLSSPVTKSFNRGEC | < 1 | 91 |
| Antibody 63 (bispecific antibody) chain 1: not shown chain 2: DIQMTQSPSFVSASVGDRVTITCLASEDIYSYLAWYQQKPGKAPKLLIFAANRLQDGVPSRFSGGGSGTGFTLTISSLQPEDFATYFCLQGSKFPYTFGQGTKLEINRTVAAPSVFIFPPSDEQLKSGTASVVCLLNNFYPREAKVQWKVDNALQSGNSQESVTEQDSKDSTYSLSSTLTLSKADYEKHKVYACEVTHQGLSSPVTKSFNRGEC | 262 | 197 |
| Antibody 59 (bispecific antibody) chain 1: not shown chain 2: DIQMTQSPSFVSASVGDRVTITCLASEDIYSYLAWYQQKPGKAPKLLIFAANRLQDGVPSRFSGGGSGTGFTLTISSLQPEDFATYFCLQGSKFPYTFGQGTKLEINRTVAAPSVFIFPPSDEQLKSGTASVVCLLNNFYPREAKVQWKVDNALQSGNSQESVTEQDSKDSTYSLSSTLTLSKADYEKHKVYACEVTHQGLSSPVTKSFNRGEC | < 1 | 469 |
| Antibody 72 (bispecific antibody) chain 1: not shown chain 2: DIQMTQSPSFVSASVGDRVTITCLASEDIYSYLAWYQQKPGKAPKLLIFAANRLQSGVPSRFSGGGSGTGFTLTISSLQPEDFATYFCLQGSKFPYTFGQGTKLEINRTVAAPSVFIFPPSDEQLKSGTASVVCLLNNFYPREAKVQWKVDNALQSGNSQESVTEQDSKDSTYSLSSTLTLSKADYEKHKVYACEVTHQGLSSPVTKSFNRGEC | < 1 | 93 |
| Antibody 56 (bispecific antibody) chain 1: not shown chain 2: DIQMTQSPSFVSASVGDRVTITCLASEDIYSYLAWYQQKPGKAPKLLIFAANRLQDGVPSRFSGGGSGTGFTLTISSLQPEDFATYFCLQGSKFPYTFGQGTKLEINRTVAAPSVFIFPPSDEQLKSGTASVVCLLNNFYPREAKVQWKVDNALQSGNSQESVTEQDSKDSTYSLSSTLTLSKADYEKHKVYACEVTHQGLSSPVTKSFNRGEC | < 1 | 45 |
| Antibody 70 (bispecific antibody) chain 1: not shown chain 2: DIQMTQSPSFVSASVGDRVTITCLASEDIYSYLAWYQQKPGKAPKLLIFAANRLQSGVPSRFSGGGSGTGFTLTISSLQPEDFATYFCLQGSKFPYTFGQGTKLEINRTVAAPSVFIFPPSDEQLKSGTASVVCLLNNFYPREAKVQWKVDNALQSGNSQESVTEQDSKDSTYSLSSTLTLSKADYEKHKVYACEVTHQGLSSPVTKSFNRGEC | < 1 | 507 |
| Antibody 67 (bispecific antibody) chain 1: not shown chain 2: DIQMTQSPSFVSASVGDRVTITCLASEDIYSYLAWYQQKPGKAPKLLIFAANRLQDGVPSRFSGGGSGTGFTLTISSLQPEDFATYFCLQGSKFPYTFGQGTKLEINRTVAAPSVFIFPPSDEQLKSGTASVVCLLNNFYPREAKVQWKVDNALQSGNSQESVTEQDSKDSTYSLSSTLTLSKADYEKHKVYACEVTHQGLSSPVTKSFNRGEC | < 1 | 5900 |
| Antibody 60 (bispecific antibody) chain 1: not shown chain 2: DIQMTQSPSFVSASVGDRVTITCLASEDIYSYLAWYQQKPGKAPKLLIFAANRLQDGVPSRFSGGGSGTGFTLTISSLQPEDFATYFCLQGSKFPYTFGQGTKLEINRTVAAPSVFIFPPSDEQLKSGTASVVCLLNNFYPREAKVQWKVDNALQSGNSQESVTEQDSKDSTYSLSSTLTLSKADYEKHKVYACEVTHQGLSSPVTKSFNRGEC | < 1 | 77 |
| Antibody 61 (bispecific antibody) chain 1: not shown chain 2: DIQMTQSPSFVSASVGDRVTITCLASEDIYSYLAWYQQKPGKAPKLLIFAANRLQDGVPSRFSGGGSGTGFTLTISSLQPEDFATYFCLQGSKFPYTFGQGTKLEINRTVAAPSVFIFPPSDEQLKSGTASVVCLLNNFYPREAKVQWKVDNALQSGNSQESVTEQDSKDSTYSLSSTLTLSKADYEKHKVYACEVTHQGLSSPVTKSFNRGEC | < 1 | 9760 |
| Antibody 71 (bispecific antibody) chain 1: not shown chain 2: DIQMTQSPSFVSASVGDRVTITCLASEDIYSYLAWYQQKPGKAPKLLIFAANRLQSGVPSRFSGGGSGTGFTLTISSLQPEDFATYFCLQGSKFPYTFGQGTKLEINRTVAAPSVFIFPPSDEQLKSGTASVVCLLNNFYPREAKVQWKVDNALQSGNSQESVTEQDSKDSTYSLSSTLTLSKADYEKHKVYACEVTHQGLSSPVTKSFNRGEC | 554 | 448 |

Further lines, with some results ahead:

| Kd [2] [pM] | Binder | EC50 of cytotoxic activity (pM) [1] [pM] |
| --- | --- | --- |
| < 1 | Antibody 75 (bispecific antibody) chain 1: not shown chain 2: DIQMTQSPSFVSASVGDRVTITCLASEDIYSYLAWYQQKPGKAPKLLIFAANRLQSGVPSRFSGGGSGTGFTLTISSLQPEDFATYFCLQGSKFPYTFGQGTKLEIKRTVAAPSVFIFPPSDEQLKSGTASVVCLLNNFYPREAKVQWKVDNALQSGNSQESVTEQDSKDSTYSLSSTLTLSKADYEKHKVYACEVTHQGLSSPVTKSFNRGEC | 77 |
| < 1 | Antibody 58 (bispecific antibody) chain 1: not shown chain 2: DIQMTQSPSFVSASVGDRVTITCLASEDIYSYLAWYQQKPGKAPKLLIFAANRLQDGVPSRFSGGGSGTGFTLTISSLQPEDFATYFCLQGSKFPYTFGQGTKLEINRTVAAPSVFIFPPSDEQLKSGTASVVCLLNNFYPREAKVQWKVDNALQSGNSQESVTEQDSKDSTYSLSSTLTLSKADYEKHKVYACEVTHQGLSSPVTKSFNRGEC | 1530 |
| < 1 | Antibody 57 (bispecific antibody) chain 1: not shown chain 2: DIQMTQSPSFVSASVGDRVTITCLASEDIYSYLAWYQQKPGKAPKLLIFAANRLQDGVPSRFSGGGSGTGFTLTISSLQPEDFATYFCLQGSKFPYTFGQGTKLEINRTVAAPSVFIFPPSDEQLKSGTASVVCLLNNFYPREAKVQWKVDNALQSGNSQESVTEQDSKDSTYSLSSTLTLSKADYEKHKVYACEVTHQGLSSPVTKSFNRGEC | 398 |
| < 1 | Antibody 74 (bispecific antibody) chain 1: not shown chain 2: DIQMTQSPSFVSASVGDRVTITCLASEDIYSYLAWYQQKPGKAPKLLIFAANRLQSGVPSRFSGGGSGTGFTLTISSLQPEDFATYFCLQGSKFPYTFGQGTKLEIKRTVAAPSVFIFPPSDEQLKSGTASVVCLLNNFYPREAKVQWKVDNALQSGNSQESVTEQDSKDSTYSLSSTLTLSKADYEKHKVYACEVTHQGLSSPVTKSFNRGEC | 31 |
| < 1 | Antibody 64 (bispecific antibody) chain 1: not shown chain 2: DIQMTQSPSFVSASVGDRVTITCLASEDIYSYLAWYQQKPGKAPKLLIFAANRLQDGVPSRFSGGGSGTGFTLTISSLQPEDFATYFCLQGSKFPYTFGQGTKLEINRTVAAPSVFIFPPSDEQLKSGTASVVCLLNNFYPREAKVQWKVDNALQSGNSQESVTEQDSKDSTYSLSSTLTLSKADYEKHKVYACEVTHQGLSSPVTKSFNRGEC | 829 |
| < 1 | Antibody 69 (bispecific antibody) chain 1: not shown chain 2: DIQMTQSPSFVSASVGDRVTITCLASEDIYSYLAWYQQKPGKAPKLLIFAANRLQSGVPSRFSGGGSGTGFTLTISSLQPEDFATYFCLQGSKFPYTFGQGTKLEINRTVAAPSVFIFPPSDEQLKSGTASVVCLLNNFYPREAKVQWKVDNALQSGNSQESVTEQDSKDSTYSLSSTLTLSKADYEKHKVYACEVTHQGLSSPVTKSFNRGEC | 162 |
| < 1 | Antibody 66 (bispecific antibody) chain 1: not shown chain 2: DIQMTQSPSFVSASVGDRVTITCLASEDIYSYLAWYQQKPGKAPKLLIFAANRLQDGVPSRFSGGGSGTGFTLTISSLQPEDFATYFCLQGSKFPYTFGQGTKLEINRTVAAPSVFIFPPSDEQLKSGTASVVCLLNNFYPREAKVQWKVDNALQSGNSQESVTEQDSKDSTYSLSSTLTLSKADYEKHKVYACEVTHQGLSSPVTKSFNRGEC | 115 |
| < 1 | Antibody 68 (bispecific antibody) chain 1: not shown chain 2: DIQMTQSPSFVSASVGDRVTITCLASEDIYSYLAWYQQKPGKAPKLLIFAANRLQSGVPSRFSGGGSGTGFTLTISSLQPEDFATYFCLQGSKFPYTFGQGTKLEINRTVAAPSVFIFPPSDEQLKSGTASVVCLLNNFYPREAKVQWKVDNALQSGNSQESVTEQDSKDSTYSLSSTLTLSKADYEKHKVYACEVTHQGLSSPVTKSFNRGEC | 27 |
| < 1 | Antibody 65 (bispecific antibody) chain 1: not shown chain 2: DIQMTQSPSFVSASVGDRVTITCLASEDIYSYLAWYQQKPGKAPKLLIFAANRLQDGVPSRFSGGGSGTGFTLTISSLQPEDFATYFCLQGSKFPYTFGQGTKLEINRTVAAPSVFIFPPSDEQLKSGTASVVCLLNNFYPREAKVQWKVDNALQSGNSQESVTEQDSKDSTYSLSSTLTLSKADYEKHKVYACEVTHQGLSSPVTKSFNRGEC | 397 |
